In patent US20180155451A1 (published 2018):

What was measured:
[1] = molecular target: T1, FcγRIIb, extracellular domain with C-terminal His tag (human, UniProt P31994 43-217); test: SPR Biacore, captured antibody, FcgR analyte; GpH7-A5/GpH7-B3/GpL16-k0 = 100
T1 construct: extracellular domain; Expressed in FreeStyle293 cells; analyte in the Biacore assay; also called FcgRIIb; 2b; not shown: His tag at the C terminus
T1 sequence (looked up): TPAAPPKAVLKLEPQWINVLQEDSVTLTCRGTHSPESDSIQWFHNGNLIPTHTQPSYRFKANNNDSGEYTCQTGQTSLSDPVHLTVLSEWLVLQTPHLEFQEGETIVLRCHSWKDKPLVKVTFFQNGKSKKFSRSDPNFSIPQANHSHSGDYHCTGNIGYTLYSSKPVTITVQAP

[2] = molecular target: T2, FcγRIIa H (FcγRIIa type H, His at position 131), extracellular domain with C-terminal His tag (human, UniProt P12318 34-217); test: as above
T2 construct: extracellular domain; Expressed in FreeStyle293 cells; analyte in the Biacore assay; also called FcgRIIa H; 2aH; not shown: His tag at the C terminus
T2 sequence (looked up): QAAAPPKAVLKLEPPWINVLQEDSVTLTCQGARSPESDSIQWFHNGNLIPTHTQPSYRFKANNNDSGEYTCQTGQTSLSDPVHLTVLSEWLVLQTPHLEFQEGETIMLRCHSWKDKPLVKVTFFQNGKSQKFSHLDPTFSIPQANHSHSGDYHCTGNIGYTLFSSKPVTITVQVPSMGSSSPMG

[3] = molecular target: T2, FcγRIIa H (FcγRIIa type H, His at …); test: SPR Biacore; He/Con_2aH divided by He/Con_2b (reference: FcgRIIb)

Binder	He/Con_2b [1]	He/Con_2aH [2]	He_2aH/2b (IIaH/IIb) [3]
GpH7-A5/GpH7-B3 variant P329_16H/GpL16-k0 (antibody, human IgG1, kappa, He Ab; IgG1; mutation in one H chain only; also called He Ab) heavy 1: not shown heavy 2: not shown light: DIVMTQSPLSLPVTPGEPASISCQASESLVHSNRNTYLHWYLQKPGQSPQLLIYKVSNRFSGVPDRFSGSGSGTDFTLKISRVEAEDVGVYYCSQNTHVPPTFGQGTKVEIERTVAAPSVFIFPPSDEQLKSGTASVVCLLNNFYPREAKVQWKVDNALQSGNSQESVTEQDSKDSTYSLSSTLTLSKADYEKHKVYACEVTHQGLSSPVTKSFNRGEC	39.1 % of HeCon Ab	66.1 % of HeCon Ab	1.69
GpH7-A5/GpH7-B3 variant Y300_14T/GpL16-k0 (antibody, human IgG1, kappa, He Ab; IgG1; mutation in one H chain only; also called He Ab) heavy 1: not shown heavy 2: not shown light: DIVMTQSPLSLPVTPGEPASISCQASESLVHSNRNTYLHWYLQKPGQSPQLLIYKVSNRFSGVPDRFSGSGSGTDFTLKISRVEAEDVGVYYCSQNTHVPPTFGQGTKVEIERTVAAPSVFIFPPSDEQLKSGTASVVCLLNNFYPREAKVQWKVDNALQSGNSQESVTEQDSKDSTYSLSSTLTLSKADYEKHKVYACEVTHQGLSSPVTKSFNRGEC	55.6 % of HeCon Ab	94.1 % of HeCon Ab	1.69
GpH7-A5/GpH7-B3 variant S324_19Q/GpL16-k0 (antibody, human IgG1, kappa, He Ab; IgG1; mutation in one H chain only; also called He Ab) heavy 1: not shown heavy 2: not shown light: DIVMTQSPLSLPVTPGEPASISCQASESLVHSNRNTYLHWYLQKPGQSPQLLIYKVSNRFSGVPDRFSGSGSGTDFTLKISRVEAEDVGVYYCSQNTHVPPTFGQGTKVEIERTVAAPSVFIFPPSDEQLKSGTASVVCLLNNFYPREAKVQWKVDNALQSGNSQESVTEQDSKDSTYSLSSTLTLSKADYEKHKVYACEVTHQGLSSPVTKSFNRGEC	66.8 % of HeCon Ab	96 % of HeCon Ab	1.44
GpH7-A5/GpH7-B3 variant S324_02A/GpL16-k0 (antibody, human IgG1, kappa, He Ab; IgG1; mutation in one H chain only; also called He Ab) heavy 1: not shown heavy 2: not shown light: DIVMTQSPLSLPVTPGEPASISCQASESLVHSNRNTYLHWYLQKPGQSPQLLIYKVSNRFSGVPDRFSGSGSGTDFTLKISRVEAEDVGVYYCSQNTHVPPTFGQGTKVEIERTVAAPSVFIFPPSDEQLKSGTASVVCLLNNFYPREAKVQWKVDNALQSGNSQESVTEQDSKDSTYSLSSTLTLSKADYEKHKVYACEVTHQGLSSPVTKSFNRGEC	78.3 % of HeCon Ab	102 % of HeCon Ab	1.31
GpH7-A5/GpH7-B3 variant Y300_12R/GpL16-k0 (antibody, human IgG1, kappa, He Ab; IgG1; mutation in one H chain only; also called He Ab) heavy 1: not shown heavy 2: not shown light: DIVMTQSPLSLPVTPGEPASISCQASESLVHSNRNTYLHWYLQKPGQSPQLLIYKVSNRFSGVPDRFSGSGSGTDFTLKISRVEAEDVGVYYCSQNTHVPPTFGQGTKVEIERTVAAPSVFIFPPSDEQLKSGTASVVCLLNNFYPREAKVQWKVDNALQSGNSQESVTEQDSKDSTYSLSSTLTLSKADYEKHKVYACEVTHQGLSSPVTKSFNRGEC	41.2 % of HeCon Ab	55.4 % of HeCon Ab	1.34
GpH7-A5/GpH7-B3 variant S324_12R/GpL16-k0 (antibody, human IgG1, kappa, He Ab; IgG1; mutation in one H chain only; also called He Ab) heavy 1: not shown heavy 2: not shown light: DIVMTQSPLSLPVTPGEPASISCQASESLVHSNRNTYLHWYLQKPGQSPQLLIYKVSNRFSGVPDRFSGSGSGTDFTLKISRVEAEDVGVYYCSQNTHVPPTFGQGTKVEIERTVAAPSVFIFPPSDEQLKSGTASVVCLLNNFYPREAKVQWKVDNALQSGNSQESVTEQDSKDSTYSLSSTLTLSKADYEKHKVYACEVTHQGLSSPVTKSFNRGEC	63.1 % of HeCon Ab	96.5 % of HeCon Ab	1.53
GpH7-A5/GpH7-B3 variant S324_09D/GpL16-k0 (antibody, human IgG1, kappa, He Ab; IgG1; mutation in one H chain only; also called He Ab) heavy 1: not shown heavy 2: not shown light: DIVMTQSPLSLPVTPGEPASISCQASESLVHSNRNTYLHWYLQKPGQSPQLLIYKVSNRFSGVPDRFSGSGSGTDFTLKISRVEAEDVGVYYCSQNTHVPPTFGQGTKVEIERTVAAPSVFIFPPSDEQLKSGTASVVCLLNNFYPREAKVQWKVDNALQSGNSQESVTEQDSKDSTYSLSSTLTLSKADYEKHKVYACEVTHQGLSSPVTKSFNRGEC	85.8 % of HeCon Ab	106 % of HeCon Ab	1.23
GpH7-A5/GpH7-B3 variant S324_01G/GpL16-k0 (antibody, human IgG1, kappa, He Ab; IgG1; mutation in one H chain only; also called He Ab) heavy 1: not shown heavy 2: not shown light: DIVMTQSPLSLPVTPGEPASISCQASESLVHSNRNTYLHWYLQKPGQSPQLLIYKVSNRFSGVPDRFSGSGSGTDFTLKISRVEAEDVGVYYCSQNTHVPPTFGQGTKVEIERTVAAPSVFIFPPSDEQLKSGTASVVCLLNNFYPREAKVQWKVDNALQSGNSQESVTEQDSKDSTYSLSSTLTLSKADYEKHKVYACEVTHQGLSSPVTKSFNRGEC	81.1 % of HeCon Ab	98.8 % of HeCon Ab	1.22
GpH7-A5/GpH7-B3 variant P329_19Q/GpL16-k0 (antibody, human IgG1, kappa, He Ab; IgG1; mutation in one H chain only; also called He Ab) heavy 1: not shown heavy 2: not shown light: DIVMTQSPLSLPVTPGEPASISCQASESLVHSNRNTYLHWYLQKPGQSPQLLIYKVSNRFSGVPDRFSGSGSGTDFTLKISRVEAEDVGVYYCSQNTHVPPTFGQGTKVEIERTVAAPSVFIFPPSDEQLKSGTASVVCLLNNFYPREAKVQWKVDNALQSGNSQESVTEQDSKDSTYSLSSTLTLSKADYEKHKVYACEVTHQGLSSPVTKSFNRGEC	30.7 % of HeCon Ab	38.7 % of HeCon Ab	1.26
GpH7-A5/GpH7-B3 variant Y300_13S/GpL16-k0 (antibody, human IgG1, kappa, He Ab; IgG1; mutation in one H chain only; also called He Ab) heavy 1: not shown heavy 2: not shown light: DIVMTQSPLSLPVTPGEPASISCQASESLVHSNRNTYLHWYLQKPGQSPQLLIYKVSNRFSGVPDRFSGSGSGTDFTLKISRVEAEDVGVYYCSQNTHVPPTFGQGTKVEIERTVAAPSVFIFPPSDEQLKSGTASVVCLLNNFYPREAKVQWKVDNALQSGNSQESVTEQDSKDSTYSLSSTLTLSKADYEKHKVYACEVTHQGLSSPVTKSFNRGEC	53.9 % of HeCon Ab	88.1 % of HeCon Ab	1.64
GpH7-A5/GpH7-B3 variant S324_11K/GpL16-k0 (antibody, human IgG1, kappa, He Ab; IgG1; mutation in one H chain only; also called He Ab) heavy 1: not shown heavy 2: not shown light: DIVMTQSPLSLPVTPGEPASISCQASESLVHSNRNTYLHWYLQKPGQSPQLLIYKVSNRFSGVPDRFSGSGSGTDFTLKISRVEAEDVGVYYCSQNTHVPPTFGQGTKVEIERTVAAPSVFIFPPSDEQLKSGTASVVCLLNNFYPREAKVQWKVDNALQSGNSQESVTEQDSKDSTYSLSSTLTLSKADYEKHKVYACEVTHQGLSSPVTKSFNRGEC	68.6 % of HeCon Ab	92.2 % of HeCon Ab	1.34
GpH7-A5/GpH7-B3 variant S324_16H/GpL16-k0 (antibody, human IgG1, kappa, He Ab; IgG1; mutation in one H chain only; also called He Ab) heavy 1: not shown heavy 2: not shown light: DIVMTQSPLSLPVTPGEPASISCQASESLVHSNRNTYLHWYLQKPGQSPQLLIYKVSNRFSGVPDRFSGSGSGTDFTLKISRVEAEDVGVYYCSQNTHVPPTFGQGTKVEIERTVAAPSVFIFPPSDEQLKSGTASVVCLLNNFYPREAKVQWKVDNALQSGNSQESVTEQDSKDSTYSLSSTLTLSKADYEKHKVYACEVTHQGLSSPVTKSFNRGEC	83.5 % of HeCon Ab	102 % of HeCon Ab	1.22
GpH7-A5/GpH7-B3 variant P329_18N/GpL16-k0 (antibody, human IgG1, kappa, He Ab; IgG1; mutation in one H chain only; also called He Ab) heavy 1: not shown heavy 2: not shown light: DIVMTQSPLSLPVTPGEPASISCQASESLVHSNRNTYLHWYLQKPGQSPQLLIYKVSNRFSGVPDRFSGSGSGTDFTLKISRVEAEDVGVYYCSQNTHVPPTFGQGTKVEIERTVAAPSVFIFPPSDEQLKSGTASVVCLLNNFYPREAKVQWKVDNALQSGNSQESVTEQDSKDSTYSLSSTLTLSKADYEKHKVYACEVTHQGLSSPVTKSFNRGEC	40.4 % of HeCon Ab	66.2 % of HeCon Ab	1.64
GpH7-A5/GpH7-B3 variant S324_10E/GpL16-k0 (antibody, human IgG1, kappa, He Ab; IgG1; mutation in one H chain only; also called He Ab) heavy 1: not shown heavy 2: not shown light: DIVMTQSPLSLPVTPGEPASISCQASESLVHSNRNTYLHWYLQKPGQSPQLLIYKVSNRFSGVPDRFSGSGSGTDFTLKISRVEAEDVGVYYCSQNTHVPPTFGQGTKVEIERTVAAPSVFIFPPSDEQLKSGTASVVCLLNNFYPREAKVQWKVDNALQSGNSQESVTEQDSKDSTYSLSSTLTLSKADYEKHKVYACEVTHQGLSSPVTKSFNRGEC	77.4 % of HeCon Ab	103 % of HeCon Ab	1.33
GpH7-A5/GpH7-B3 variant S324_18N/GpL16-k0 (antibody, human IgG1, kappa, He Ab; IgG1; mutation in one H chain only; also called He Ab) heavy 1: not shown heavy 2: not shown light: DIVMTQSPLSLPVTPGEPASISCQASESLVHSNRNTYLHWYLQKPGQSPQLLIYKVSNRFSGVPDRFSGSGSGTDFTLKISRVEAEDVGVYYCSQNTHVPPTFGQGTKVEIERTVAAPSVFIFPPSDEQLKSGTASVVCLLNNFYPREAKVQWKVDNALQSGNSQESVTEQDSKDSTYSLSSTLTLSKADYEKHKVYACEVTHQGLSSPVTKSFNRGEC	81.1 % of HeCon Ab	97.8 % of HeCon Ab	1.21
